The results in this text go back to article PMC2838905.

This assay deals with Dictyostelium myosin II (bipolar filaments) (Dictyostelium discoideum) (UniProt P08799).

B1: GST-B-Δ-WD, MHCK-B truncation lacking only the WD-repeat domain (amino acids 1-450) (domain or fragment)
chain: MIFKVWFSYEDEEVELSELTNDTTVSAIRKILHEGKIFRFPYGTSQTDLQIGKMLPSGSGGGATADSKFEKFKARNTLADIQYKVGDTLYVRVKKSKPTNDSLLPTLNIAFLDGSERAIKWEYDPYTTTAQWTCTATLVKVEPVPFAEGAFRKAYHTLDLSKSGASGRYVSKIGKKPTPRPSYFEDVKMQMIAKKWADKYNSFKPPKKIEFLQSCVLEFVDRTSSDLICGAEPYVEGQYRKYNNNSGFVSNDERNTPQSFSHFTYEHSNHQLLIIDIQGVGDHYTDPQIHTYDGVGFGIGNLGQKGFEKFLDTHKCNAICQYLNLQSINPKSEKSDCGTVPRPDLIFPDTSERDNNNNNNNNNNNNNNNNNNNSNNNNNNNSSISKSLVEISSGSKERNDRDSPSRQLFVSNDGNTLNTNKERSKSKSIDLEKPEILINNKKKESINLET
As to B1, the phosphorylation of MHC in a kinase assay (50 nM kinase, 1.0 μM myosin II), against the full-length kinase (% of the full-length kinase) came out at 30.
